Source: patent US20190134153A1, “IMMUNOMODULATORY EFFECT OF INHALED KINASE INHIBITOR PEPTIDES IN LUNG” (MOERAE MATRIX, INC., priority 2017, published 2019)

Columns and labels:
Assay in all cases: Kinase Profiling Assay
Assay type in all cases: biochemical
Settings in all cases: 100 μM
GCK(h) = molecular target: T1, GCK(h) (Homo sapiens, UniProt Q12851)
T1 sequence (Q12851 1-820): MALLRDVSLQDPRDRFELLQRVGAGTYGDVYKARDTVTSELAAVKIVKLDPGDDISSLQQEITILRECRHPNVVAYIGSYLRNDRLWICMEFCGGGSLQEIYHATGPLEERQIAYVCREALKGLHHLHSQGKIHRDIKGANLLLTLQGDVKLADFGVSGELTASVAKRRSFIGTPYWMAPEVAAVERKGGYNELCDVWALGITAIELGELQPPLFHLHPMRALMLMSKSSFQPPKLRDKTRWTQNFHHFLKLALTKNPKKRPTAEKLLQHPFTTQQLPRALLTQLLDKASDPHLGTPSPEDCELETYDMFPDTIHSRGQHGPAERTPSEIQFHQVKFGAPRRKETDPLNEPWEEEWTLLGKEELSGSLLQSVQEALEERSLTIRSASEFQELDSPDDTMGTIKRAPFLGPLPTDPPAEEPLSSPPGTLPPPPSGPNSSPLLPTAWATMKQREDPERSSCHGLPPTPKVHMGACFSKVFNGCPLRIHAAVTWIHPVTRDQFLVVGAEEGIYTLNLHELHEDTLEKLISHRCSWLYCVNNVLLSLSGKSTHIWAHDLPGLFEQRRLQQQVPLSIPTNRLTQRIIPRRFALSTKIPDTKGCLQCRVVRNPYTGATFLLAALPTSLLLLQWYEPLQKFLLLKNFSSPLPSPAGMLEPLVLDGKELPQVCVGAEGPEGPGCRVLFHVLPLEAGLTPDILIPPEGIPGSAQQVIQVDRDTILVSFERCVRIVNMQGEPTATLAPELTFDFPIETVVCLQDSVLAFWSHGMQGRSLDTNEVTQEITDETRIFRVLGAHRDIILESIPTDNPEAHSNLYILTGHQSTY

TSSK1(h) = molecular target: T2, TSSK1(h) (Homo sapiens, UniProt Q9BXA7)
T2 sequence (Q9BXA7 1-367): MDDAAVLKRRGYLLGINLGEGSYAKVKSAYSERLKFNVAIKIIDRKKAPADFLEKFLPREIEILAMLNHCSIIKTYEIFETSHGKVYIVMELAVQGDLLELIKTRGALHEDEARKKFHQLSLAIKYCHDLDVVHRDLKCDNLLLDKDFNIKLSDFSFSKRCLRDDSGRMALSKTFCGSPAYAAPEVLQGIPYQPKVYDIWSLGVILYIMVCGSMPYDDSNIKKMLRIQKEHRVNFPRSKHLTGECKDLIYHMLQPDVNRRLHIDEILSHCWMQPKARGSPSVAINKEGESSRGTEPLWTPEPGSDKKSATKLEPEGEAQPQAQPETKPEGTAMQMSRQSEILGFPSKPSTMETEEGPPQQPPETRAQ

cKit(D816H)(h) = cKit(D816H)(h) (Homo sapiens, UniProt P10721, D816H)
JNK3(h) = JNK3(h) (Homo sapiens, UniProt P53779)
NEK3(h) = molecular target: T3, NEK3(h) (Homo sapiens, UniProt P51956)
T3 sequence (P51956 1-506): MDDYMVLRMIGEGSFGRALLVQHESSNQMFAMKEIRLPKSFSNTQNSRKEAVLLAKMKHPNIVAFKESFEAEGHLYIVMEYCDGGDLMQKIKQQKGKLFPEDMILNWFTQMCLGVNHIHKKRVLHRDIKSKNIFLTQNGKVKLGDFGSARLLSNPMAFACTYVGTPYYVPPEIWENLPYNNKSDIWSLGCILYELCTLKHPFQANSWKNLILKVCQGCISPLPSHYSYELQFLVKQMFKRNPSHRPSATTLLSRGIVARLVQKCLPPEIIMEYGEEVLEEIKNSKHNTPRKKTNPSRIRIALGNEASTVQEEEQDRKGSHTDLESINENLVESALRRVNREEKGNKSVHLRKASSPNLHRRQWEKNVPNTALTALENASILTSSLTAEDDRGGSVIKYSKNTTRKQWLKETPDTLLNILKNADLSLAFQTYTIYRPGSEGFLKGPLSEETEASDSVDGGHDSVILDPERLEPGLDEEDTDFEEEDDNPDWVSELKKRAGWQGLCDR

WNK3(h) = WNK3(h) (Homo sapiens, UniProt Q9BYP7)
Ros(h) = Ros(h) (Homo sapiens, UniProt P08922)
Sequence of Ros(h) (P08922 28-2347): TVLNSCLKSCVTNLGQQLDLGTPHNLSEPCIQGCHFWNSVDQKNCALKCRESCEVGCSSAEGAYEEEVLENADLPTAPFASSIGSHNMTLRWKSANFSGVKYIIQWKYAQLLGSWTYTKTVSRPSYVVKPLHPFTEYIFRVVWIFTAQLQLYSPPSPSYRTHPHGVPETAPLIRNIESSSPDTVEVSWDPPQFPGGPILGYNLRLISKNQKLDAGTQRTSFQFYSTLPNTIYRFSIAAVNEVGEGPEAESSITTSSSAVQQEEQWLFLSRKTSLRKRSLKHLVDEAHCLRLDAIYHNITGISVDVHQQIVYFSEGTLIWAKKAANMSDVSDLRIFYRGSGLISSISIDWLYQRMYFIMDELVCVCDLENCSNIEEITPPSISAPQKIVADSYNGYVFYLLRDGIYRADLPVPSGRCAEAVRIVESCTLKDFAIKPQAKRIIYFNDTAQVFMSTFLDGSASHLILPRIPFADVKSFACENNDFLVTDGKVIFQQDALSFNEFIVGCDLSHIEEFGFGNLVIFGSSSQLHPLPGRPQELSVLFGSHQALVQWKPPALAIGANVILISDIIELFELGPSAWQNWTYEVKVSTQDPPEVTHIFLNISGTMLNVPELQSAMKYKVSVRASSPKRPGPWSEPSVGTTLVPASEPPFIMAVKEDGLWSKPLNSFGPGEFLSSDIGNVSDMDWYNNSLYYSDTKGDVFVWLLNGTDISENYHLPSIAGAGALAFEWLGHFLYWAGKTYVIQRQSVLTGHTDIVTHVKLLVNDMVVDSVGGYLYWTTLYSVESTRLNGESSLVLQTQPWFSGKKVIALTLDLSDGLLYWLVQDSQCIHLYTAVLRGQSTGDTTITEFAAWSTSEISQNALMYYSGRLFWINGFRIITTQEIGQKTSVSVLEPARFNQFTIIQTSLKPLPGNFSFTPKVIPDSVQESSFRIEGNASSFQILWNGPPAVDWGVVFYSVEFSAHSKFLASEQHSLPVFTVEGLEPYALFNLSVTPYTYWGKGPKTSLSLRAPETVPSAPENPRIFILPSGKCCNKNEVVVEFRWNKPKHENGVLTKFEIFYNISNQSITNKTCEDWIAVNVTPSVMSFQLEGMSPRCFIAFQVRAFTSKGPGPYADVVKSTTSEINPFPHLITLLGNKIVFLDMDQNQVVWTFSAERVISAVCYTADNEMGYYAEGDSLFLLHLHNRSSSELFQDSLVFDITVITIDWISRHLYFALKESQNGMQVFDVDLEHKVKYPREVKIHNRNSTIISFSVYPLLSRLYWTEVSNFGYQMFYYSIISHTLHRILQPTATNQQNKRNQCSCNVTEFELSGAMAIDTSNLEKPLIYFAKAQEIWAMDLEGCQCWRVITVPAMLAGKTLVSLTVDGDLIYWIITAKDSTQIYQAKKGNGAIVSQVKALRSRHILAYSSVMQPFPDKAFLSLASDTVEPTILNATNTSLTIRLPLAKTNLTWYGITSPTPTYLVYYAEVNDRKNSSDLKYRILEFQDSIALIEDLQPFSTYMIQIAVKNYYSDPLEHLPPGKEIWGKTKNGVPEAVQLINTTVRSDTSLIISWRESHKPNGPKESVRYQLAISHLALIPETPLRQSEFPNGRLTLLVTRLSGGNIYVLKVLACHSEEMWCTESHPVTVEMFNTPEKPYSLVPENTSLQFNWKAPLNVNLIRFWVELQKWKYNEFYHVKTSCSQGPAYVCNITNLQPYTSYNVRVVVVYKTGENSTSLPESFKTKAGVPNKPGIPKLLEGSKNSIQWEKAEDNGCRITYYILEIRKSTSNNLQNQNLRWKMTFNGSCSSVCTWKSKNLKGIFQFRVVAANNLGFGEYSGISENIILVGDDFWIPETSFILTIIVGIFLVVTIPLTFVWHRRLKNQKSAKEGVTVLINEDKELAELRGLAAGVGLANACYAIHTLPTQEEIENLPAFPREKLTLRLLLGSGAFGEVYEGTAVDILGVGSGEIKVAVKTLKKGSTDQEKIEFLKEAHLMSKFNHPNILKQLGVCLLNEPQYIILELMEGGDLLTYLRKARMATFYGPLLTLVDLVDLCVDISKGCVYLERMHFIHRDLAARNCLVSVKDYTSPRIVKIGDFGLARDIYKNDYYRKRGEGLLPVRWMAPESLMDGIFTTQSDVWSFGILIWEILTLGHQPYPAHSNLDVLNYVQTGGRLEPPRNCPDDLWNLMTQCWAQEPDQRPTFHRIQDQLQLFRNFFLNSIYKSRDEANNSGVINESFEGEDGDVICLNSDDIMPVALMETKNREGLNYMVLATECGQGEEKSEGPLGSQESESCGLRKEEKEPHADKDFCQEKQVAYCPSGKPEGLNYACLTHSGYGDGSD

PKCβI(h) = PKCβI(h) (Homo sapiens, UniProt P05771)
Sequence of PKCβI(h) (P05771 whole entry): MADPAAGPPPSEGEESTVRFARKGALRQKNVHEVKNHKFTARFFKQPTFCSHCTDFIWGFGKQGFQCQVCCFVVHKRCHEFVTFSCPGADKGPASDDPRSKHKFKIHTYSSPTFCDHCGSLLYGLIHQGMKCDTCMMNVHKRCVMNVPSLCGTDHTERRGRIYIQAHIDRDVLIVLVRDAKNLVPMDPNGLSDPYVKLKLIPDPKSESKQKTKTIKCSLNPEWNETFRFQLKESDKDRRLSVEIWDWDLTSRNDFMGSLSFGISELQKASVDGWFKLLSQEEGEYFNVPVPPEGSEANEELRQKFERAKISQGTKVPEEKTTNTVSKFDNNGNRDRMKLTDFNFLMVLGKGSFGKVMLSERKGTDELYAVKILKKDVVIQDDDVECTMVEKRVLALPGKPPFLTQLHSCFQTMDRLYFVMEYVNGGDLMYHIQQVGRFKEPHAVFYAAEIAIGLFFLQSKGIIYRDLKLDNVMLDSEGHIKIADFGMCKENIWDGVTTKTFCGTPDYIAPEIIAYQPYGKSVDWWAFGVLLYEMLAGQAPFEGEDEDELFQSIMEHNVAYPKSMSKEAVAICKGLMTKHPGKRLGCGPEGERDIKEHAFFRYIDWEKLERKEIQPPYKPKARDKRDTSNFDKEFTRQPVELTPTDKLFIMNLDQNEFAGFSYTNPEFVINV

Fes(h) = Fes(h) (Homo sapiens, UniProt P07332)
CSK(h) = CSK(h) (Homo sapiens, UniProt P41240)
Sequence of CSK(h) (P41240 whole entry): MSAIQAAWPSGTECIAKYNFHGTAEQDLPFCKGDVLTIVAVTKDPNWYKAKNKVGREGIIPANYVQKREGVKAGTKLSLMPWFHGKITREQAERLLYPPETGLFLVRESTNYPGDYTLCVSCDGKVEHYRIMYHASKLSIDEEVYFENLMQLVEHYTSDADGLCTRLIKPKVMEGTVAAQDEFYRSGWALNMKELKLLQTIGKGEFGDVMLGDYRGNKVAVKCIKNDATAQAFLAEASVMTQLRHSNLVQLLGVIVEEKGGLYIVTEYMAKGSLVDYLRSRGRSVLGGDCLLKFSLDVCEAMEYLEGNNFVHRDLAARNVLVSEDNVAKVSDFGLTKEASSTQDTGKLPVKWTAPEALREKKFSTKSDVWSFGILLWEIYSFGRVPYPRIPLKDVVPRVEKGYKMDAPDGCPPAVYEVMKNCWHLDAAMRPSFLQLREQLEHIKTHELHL

GSK3α(h) = GSK3α(h) (Homo sapiens, UniProt P49840)
Sequence of GSK3α(h) (P49840 whole entry): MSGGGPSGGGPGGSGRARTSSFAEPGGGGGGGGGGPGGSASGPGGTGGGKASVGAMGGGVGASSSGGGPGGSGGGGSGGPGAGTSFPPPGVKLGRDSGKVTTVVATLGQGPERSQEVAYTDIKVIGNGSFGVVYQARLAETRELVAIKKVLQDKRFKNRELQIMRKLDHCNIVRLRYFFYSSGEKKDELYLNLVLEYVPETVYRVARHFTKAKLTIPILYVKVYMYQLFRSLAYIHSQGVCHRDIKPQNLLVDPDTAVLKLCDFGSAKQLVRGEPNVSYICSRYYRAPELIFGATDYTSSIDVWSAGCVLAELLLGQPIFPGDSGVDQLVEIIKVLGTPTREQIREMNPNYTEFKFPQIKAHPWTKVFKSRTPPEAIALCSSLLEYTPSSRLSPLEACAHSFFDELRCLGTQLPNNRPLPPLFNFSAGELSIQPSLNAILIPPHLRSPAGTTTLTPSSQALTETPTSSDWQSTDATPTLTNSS

IR(h), activated = IR(h), activated (Homo sapiens, UniProt P06213)
PrKX(h) = molecular target: T4, PrKX(h) (Homo sapiens, UniProt P51817)
T4 sequence (P51817 1-358): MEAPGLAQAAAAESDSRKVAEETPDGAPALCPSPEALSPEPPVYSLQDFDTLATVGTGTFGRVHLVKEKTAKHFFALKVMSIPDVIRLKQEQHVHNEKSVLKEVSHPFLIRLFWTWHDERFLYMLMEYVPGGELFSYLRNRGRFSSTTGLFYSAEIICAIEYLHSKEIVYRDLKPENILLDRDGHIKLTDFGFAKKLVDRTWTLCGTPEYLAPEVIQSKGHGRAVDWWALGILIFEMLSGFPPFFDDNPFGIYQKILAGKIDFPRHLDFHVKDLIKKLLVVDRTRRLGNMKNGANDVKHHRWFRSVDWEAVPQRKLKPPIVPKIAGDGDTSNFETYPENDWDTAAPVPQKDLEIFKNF

FAK(h) = FAK(h) (Homo sapiens, UniProt Q05397)
Sequence of FAK(h) (Q05397 whole entry): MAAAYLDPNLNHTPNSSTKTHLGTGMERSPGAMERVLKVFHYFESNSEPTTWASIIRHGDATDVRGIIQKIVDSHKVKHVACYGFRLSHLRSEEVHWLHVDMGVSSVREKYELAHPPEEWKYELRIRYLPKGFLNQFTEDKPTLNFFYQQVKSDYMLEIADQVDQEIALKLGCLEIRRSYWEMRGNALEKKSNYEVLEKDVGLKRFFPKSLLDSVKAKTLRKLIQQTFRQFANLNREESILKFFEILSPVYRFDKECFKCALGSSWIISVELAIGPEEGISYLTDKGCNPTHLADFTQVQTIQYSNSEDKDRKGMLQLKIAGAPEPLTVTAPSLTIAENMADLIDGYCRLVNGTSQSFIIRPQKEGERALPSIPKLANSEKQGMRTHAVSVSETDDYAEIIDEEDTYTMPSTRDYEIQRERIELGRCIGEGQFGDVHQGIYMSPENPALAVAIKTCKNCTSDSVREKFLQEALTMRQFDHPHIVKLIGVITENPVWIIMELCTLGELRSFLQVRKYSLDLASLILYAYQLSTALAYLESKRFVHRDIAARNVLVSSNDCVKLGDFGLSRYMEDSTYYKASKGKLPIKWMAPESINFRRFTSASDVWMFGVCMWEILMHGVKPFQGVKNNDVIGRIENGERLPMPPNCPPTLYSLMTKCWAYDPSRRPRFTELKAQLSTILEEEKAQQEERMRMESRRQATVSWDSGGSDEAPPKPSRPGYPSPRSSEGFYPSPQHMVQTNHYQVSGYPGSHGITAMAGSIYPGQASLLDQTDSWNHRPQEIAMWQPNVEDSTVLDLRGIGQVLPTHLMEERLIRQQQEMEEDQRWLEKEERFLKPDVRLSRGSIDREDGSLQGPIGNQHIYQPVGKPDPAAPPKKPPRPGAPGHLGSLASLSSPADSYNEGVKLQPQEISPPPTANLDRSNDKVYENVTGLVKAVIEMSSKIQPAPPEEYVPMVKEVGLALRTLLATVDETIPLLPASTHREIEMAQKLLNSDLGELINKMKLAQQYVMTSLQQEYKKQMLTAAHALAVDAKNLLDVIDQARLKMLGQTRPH

Sequence | % activity (GCK(h)) | % activity (TSSK1(h)) | % activity (cKit(D816H)(h)) | % activity (JNK3(h)) | % activity (NEK3(h)) | % activity (WNK3(h)) | % activity (Ros(h)) | % activity (PKCβI(h)) | % activity (Fes(h)) | % activity (CSK(h)) | % activity (GSK3α(h)) | % activity (IR(h), activated) | % activity (PrKX(h)) | % activity (FAK(h))
FAKLAARLYRKALARQLGVAA [MMI-0300] | 70% | 79% | 126% | 89% | 92% | 77% | 95% | 78% | 20% | 49% | 157% | 79% | 61% | –
KAFAKLAARLYRKALARQLGVAA [MMI-0400] | 66% | 79% | 143% | 70% | 85% | 74% | 99% | 78% | 16% | 16% | 164% | 59% | 76% | 96%
HRRIKAWLKKIKALARQLGVAA [MMI-0500] | 30% | 46% | 194% | 171% | 20% | 9% | 150% | 1% | 23% | 2% | 175% | 90% | 57% | 94%
YARAAARQARAKALNRQLGVA [MMI-0200] | 99% | 98% | – | 90% | 100% | 97% | 86% | 98% | 74% | 33% | – | – | – | 110%
